Test results from patent US7662384B2, “Use of anti-α5β1 antibodies to inhibit cancer cell proliferation” (Facet Biotech Corporation, priority 2004, dated 2010).

What was measured:
LOX = assay: M200 in vitro cell proliferation assay; type: cell-based; settings: LOX (melanoma)
Procedure: Cancer cell lines were plated at a density of 2500 cells/well in 96-well plates in IMDM with supplements in the presence or absence of 10% FBS. At the time of plating, cells were challenged with various concentrations M200 or a non-function blocking anti-α5 antibody, VC5. […] All growth studies were done at least 3 times in triplicate.

rat α5β1 integrin = assay: species cross-reactivity of anti-α5β1 antibody; type: binding
[1] = Phase I dose-escalation study: safety / adverse events; type: in vivo, human
Procedure: The dosing levels and schedule used in the study were as follows. M200 was administered to the 21 patients on days 1, 15, 22, 29, and 36. The dosing levels and numbers of patients per level were: 0.5 mg/kg (1 patient), 1.0 mg/kg (2 patient), 2.5 mg/kg (3 patients), 5.0 mg/kg (3 patients), 10.0 mg/kg (6 patients) and 15 mg/kg (6 patients). The dose was administered as an intravenous infusion over 1 hour. The first and second doses were separated by a two week period to allow sampling for single-dose pharmacokinetic data. The real-time PK measurements performed following the first dose were used to predict each patient's peak serum concentration following the fifth dose. If the predicted peak serum concentration following the fifth dose was <750 μg/mL, the patient received all 5 doses of M200. The remaining 3 doses were given weekly and followed by a 45-day evaluation period.
Adverse events were graded using the National Cancer Institute (NCI) Common Terminology Criteria for Adverse Events (CTCAE), version 3.0. Dose-limiting toxicity was defined as any Grade-3 or Grade-4 adverse event, excluding scheduled hospitalizations or elective surgeries. Grade-3 or Grade-4 adverse events thought to be unrelated to M200 were excluded where appropriate following a review with the medical monitor and regulatory agencies.

[2] = Phase I dose-escalation study: immunogenicity (double-antigen bridging ELISA); type: in vivo, human
Procedure: Immunogenicity of M200 was determined by a double-antigen bridging ELISA assay. Serum samples for anti-M200 antibodies were obtained from patients before treatment, prior to the second dose, and at study exit, 45 days after the last dose of M200. In addition, serum for anti-M200 antibodies was drawn if the interval between doses was […]. Samples were stored and evaluated at the end of the study. Samples that tested positive for antibodies to M200 were re-assayed for neutralizing antibodies to M200. Patients with known exposure to murine or chimeric monoclonal antibodies were screened for the presence of anti-M200 antibodies prior to receiving the first dose of M200.

refractory solid tumors = assay: Phase I extension study: tumor response; type: in vivo, human
Procedure: A two-part Phase I open-label study was carried to determine the effects of treatment with up to 6 dose levels, from 0.5 mg/kg to 15.0 mg/kg of M200 (volociximab) in 21 human patients with a variety of refractory solid tumor types. The total duration of treatment for the first part was 6 weeks with physical assessments through 45 days after the last dose.
Patient evaluations during the study included the following: • a. Screening (within 14 days of study entry) of: medical history and physical examination, ECOG performance status, routine chemistry panel, complete blood count (CBC) with differential and platelets, sensitive C-reactive protein (CRP), urinalysis with microscopic analysis (UA/micro), electrocardiogram (ECG), chest radiograph (CXR), disease-directed body CT or MRI, urine pregnancy test within 48 hours prior to dosing, and coagulation studies (prothrombin [PT] and partial thromboplastin time [PTT]), anti-M200 antibodies (i.e., to detect cross-reactive HAMA or HACA) for patients who previously received murine or chimeric antibodies, head CT for patients with tumors that commonly metastasize to brain or CNS, and, in some patients, a biopsy to evaluate tumor vessel vascularity. • b. On-study laboratory evaluations: routine chemistry panel, urate, serum amylase, CBC with differential and platelets, UA/micro. • c. Routine disease-directed radiographic imaging (e.g., CT scanning) before and after treatment with M200 was used to evaluate tumor response using uni-dimensional, RECIST criteria. Target lesions were selected on the basis of their size (lesions with the longest diameter (LD)) and their suitability for accurate repetitive measurements (either by imaging techniques or clinically). A sum of the LD for all target lesions was calculated and reported as the baseline sum LD. The baseline sum LD was used as reference by which to characterize the objective tumor response. The following response criteria for the target lesions was used to assess the best overall response. • Complete Response (CR): Disappearance of all target lesions confirmed by repeat imaging 25 to 28 days after CR first documented. • Partial Response (PR): At least a 30% decrease in the sum of LD of target lesions, taking as reference the baseline sum LD, confirmed by repeat imaging 25 to 28 days after PR first documented. • Stable Disease (SD): Neither sufficient shrinkage to qualify for PR nor sufficient increase to qualify for PD, taking as references the smallest sum LD. • Progressive Disease (PD): At least a 20% increase in the sum of LD of target lesions, taking as reference the smallest sum LD recorded since treatment started, or the appearance of one or more new lesions. • d. Blood drawn for serum PK measurements, immunogenicity assays (anti-M200 antibodies), vascular growth factors, and measurement of bound and unbound α5β1 on peripheral blood monocytes. • e. A 3-mm punch biopsy of superficial tumor metastasis was obtained and frozen after the last treatment with M200 from patients who consented (not required for enrollment) to the procedure. This biopsy specimen could be used evaluate tumor vessel vascularity following treatment with M200.
One of these patients with renal cell cancer (RCC) in the 15.0 mg/kg cohort achieved a partial response.

[3] = human, in vivo, 10 mg/kg
Procedure: The serum for measuring M200 concentrations was obtained immediately before and after the first dose, and at 4, 24, 48, and 168 hours after completion of the first dose. Serum samples for measuring M200 concentrations were also taken immediately before, at the end, and 4 hours after the completion of each subsequent infusion. These samples were split and aliquots assayed before the next dose and again at the end of the study: end of 1st dose, 168 hours after 1st dose, immediately pre-dose (trough) and immediately post-dose (peak) for the 2nd, 3rd, 4th and 5th doses. The serum levels of M200 were measured by ELISA.
The plasma concentration-time data of M200 from each patient was subjected to a PK analysis. The following parameters were included in the calculations: peak (Cmax) and trough (Cmin) levels, terminal phase half-life (T1/2 β), area under the plasma-concentration time curve (AUC), elimination clearance (CL), and volume of distribution (V). Summary parameters were computed across patients from each treatment group. Changes in the PK parameters as a function of dose and time were also evaluated.

[4] = system: activated endothelial cells; settings: regardless of the growth factor stimulus; cited from earlier work
angiogenesis = settings: monkey eye model; cited from earlier work

B1: M200: chimeric IgG4 anti-α5β1 antibody derived from IIA1; generic name volociximab (antibody, V domains shown)
VH: MAVLGLLLCLVTFPSCVLSQVQLKESGPGLVAPSQSLSITCTISGFSLTDYGVHWVRQPPGKGLEWLVVIWSDGSSTYNSALKSRMTIRKDNSKSQVFLIMNSLQTDDSAMYYCARHGTYYGMTTTGDALDYWGQGTSVTVSS
VL: MDFQVQIFSFLLISASVIMSRGQIVLTQSPAIMSASLGERVTMTCTASSSVSSNYLHWYQQKPGSAPNLWIYSTSNLASGVPARFSGSGSGTSYSLTISSMEAEDAATYYCHQYLRSPPTFGGGTKLEIKDMSVDMSV
modifications: chimeric antibody
notes: chimeric IgG4 anti-α5β1 antibody derived from IIA1; generic name volociximab
% Growth Inhibition +Serum (LOX; 10% FBS, 4-day assay): 35%
% Growth Inhibition −Serum (LOX; absence of serum, 2-day rather than 4-day assay): 40^2%
cross reaction with rat α5β1 integrin (rat α5β1 integrin): does not cross react
dose-limiting toxicities ([1]; doses up to 15 mg/kg): no dose-limiting M200 toxicities were observed
tolerability in patients ([1]; doses up to 15 mg/kg): well tolerated
adverse events, intensity ([1]; fatigue, nausea, constipation, headache and anorexia): generally mild to moderate in intensity
infusion reaction ([1]; the one patient who received 0.5 mg/kg): fever after the first dose
patients tested positive for anti-M200 antibodies ([2]; 0.5 mg/kg and 1.0 mg/kg dose levels): Three
patients tested positive for anti-M200 ([2]; higher dose cohorts): No patients
Best Response Outcome (refractory solid tumors; 2.5 mg/kg, 1 patient, NSCLC): SD (SD defined as stabilization for ≧16 weeks (112 days))
Time to Progression (refractory solid tumors; 2.5 mg/kg, 1 patient, NSCLC, includes 43 days on dose escalation study): 129 days
Best Response Outcome (refractory solid tumors; 5 mg/kg, 1 patient, HCC): SD (SD defined as stabilization for ≧16 weeks (112 days))
Time to Progression (refractory solid tumors; 5 mg/kg, 1 patient, HCC, includes 43 days on dose escalation study): 122 days
Time to Progression (refractory solid tumors; 10 mg/kg, 1 patient, CRC, includes 43 days on dose escalation study): 70 days
Best Response Outcome (refractory solid tumors; 10 mg/kg, 1 patient, PARO): SD (SD defined as stabilization for ≧16 weeks (112 days))
Time to Progression (refractory solid tumors; 10 mg/kg, 1 patient, PARO, includes 43 days on dose escalation study): 143 days
Best Response Outcome (refractory solid tumors; 15 mg/kg, 1 patient, MEL): SD (SD defined as stabilization for ≧16 weeks (112 days))
Time to Progression (Days) (refractory solid tumors; 15 mg/kg, 1 patient, MEL, on study, includes 43 days on dose escalation study): 172+ (on Study) Days
Time to Progression (refractory solid tumors; 15 mg/kg, 1 patient, RCC, includes 43 days on dose escalation study): 214 days
patients exhibiting stable disease (SD) or better response (refractory solid tumors; of the 6 patients in the extension study): 5 patients
T1/2 [3]: 15.7 days
apoptosis of activated endothelial cells in vitro [4]: induce apoptosis
in vivo anti-angiogenic efficacy (angiogenesis): in vivo anti-angiogenic efficacy
